Reference: patent US20230265151A1, “GIP/GLP1 CO-AGONIST COMPOUNDS” (priority 2020, published 2023)
Where a chain is given by its changes, count along the chain named. *1 amine or outer side, *2 acyl side, *3 side chain or, on linkers, in order; H or OH if unused. Where no end group is shown, it is not given here. Side-chain parts run from the residue outwards. [ ]: non-standard residue; d: D form. The star is where a group is joined. αMePhe(2-F) = C[C@](N)(Cc1ccccc1F)C(=O)O; γGlu = O=C(O)[C@H](CCC(=O)[*:2])N[*:1]; C14 diacid = O=C(O)CCCCCCCCCCCCC(=O)*; αMeY = C[C@](N)(Cc1ccc(O)cc1)C(=O)O; αMeL = CC(C)C[C@](C)(N)C(=O)O; Orn = NCCC[C@H](N)C(=O)O; AEEA = NCCOCCOCC(=O)O; Aib = CC(C)(N)C(=O)O

T1: human GIP receptor (human, UniProt P48546 22-466)
T1 sequence (looked up): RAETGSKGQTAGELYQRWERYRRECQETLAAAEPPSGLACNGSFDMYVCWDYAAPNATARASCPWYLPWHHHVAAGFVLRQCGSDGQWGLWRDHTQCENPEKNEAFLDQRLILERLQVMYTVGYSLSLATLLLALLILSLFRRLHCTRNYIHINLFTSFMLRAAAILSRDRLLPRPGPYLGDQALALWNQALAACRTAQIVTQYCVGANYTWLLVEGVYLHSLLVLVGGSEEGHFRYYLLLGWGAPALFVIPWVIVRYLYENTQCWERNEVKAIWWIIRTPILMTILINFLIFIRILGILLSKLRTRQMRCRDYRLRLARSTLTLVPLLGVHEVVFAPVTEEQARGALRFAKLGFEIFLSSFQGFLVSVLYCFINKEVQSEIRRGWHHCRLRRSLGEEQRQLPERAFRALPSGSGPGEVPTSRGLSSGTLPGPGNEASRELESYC

T2: human GIP receptor (human, UniProt P48546 22-466)
T2 sequence (looked up): T1 sequence (looked up)

B1: Example 400 (peptide)
peptide: Y[Aib]EGT[αMePhe(2-F)]TSDV[Aib]I[αMeL]LD[Orn]IAQ[Aib]EFIK([AEEA-γGlu-C14 diacid])[αMeY]LIK([AEEA-γGlu-C14 diacid])GGPSSGAPPPS-NH2
modifications: N-terminus assumed
SMILES: CC[C@H](C)[C@H](NC(=O)[C@H](CCCN)NC(=O)[C@H](CC(=O)O)NC(=O)[C@H](CC(C)C)NC(=O)[C@](C)(CC(C)C)NC(=O)[C@@H](NC(=O)C(C)(C)NC(=O)[C@@H](NC(=O)[C@H](CC(=O)O)NC(=O)[C@H](CO)NC(=O)[C@@H](NC(=O)[C@](C)(Cc1ccccc1F)NC(=O)[C@@H](NC(=O)CNC(=O)[C@H](CCC(=O)O)NC(=O)C(C)(C)NC(=O)[C@@H](N)Cc1ccc(O)cc1)[C@@H](C)O)[C@@H](C)O)C(C)C)[C@@H](C)CC)C(=O)N[C@@H](C)C(=O)N[C@@H](CCC(N)=O)C(=O)NC(C)(C)C(=O)N[C@@H](CCC(=O)O)C(=O)N[C@@H](Cc1ccccc1)C(=O)N[C@H](C(=O)N[C@@H](CCCCNC(=O)COCCOCCNC(=O)CC[C@H](NC(=O)CCCCCCCCCCCCC(=O)O)C(=O)O)C(=O)N[C@@](C)(Cc1ccc(O)cc1)C(=O)N[C@@H](CC(C)C)C(=O)N[C@H](C(=O)N[C@@H](CCCCNC(=O)COCCOCCNC(=O)CC[C@H](NC(=O)CCCCCCCCCCCCC(=O)O)C(=O)O)C(=O)NCC(=O)NCC(=O)N1CCC[C@H]1C(=O)N[C@@H](CO)C(=O)N[C@@H](CO)C(=O)NCC(=O)N[C@@H](C)C(=O)N1CCC[C@H]1C(=O)N1CCC[C@H]1C(=O)N1CCC[C@H]1C(=O)N[C@@H](CO)C(N)=O)[C@@H](C)CC)[C@@H](C)CC
B2: Example 19 (peptide)
peptide: YXEGTXTSDXSIXLDXKAQXEFIXXLIEGGPSSGAPPPSK
modifications: Aib2, αMeF(2F)6, 4Pal10, αMeL13, Orn16, Aib20, D-Glu24, αMeY25, K17 and K40: K(AEEA2-(γ-Glu)-CO-(CH2)12-CO2H), C-terminal NH2
B3: Example 25 (peptide)
peptide: B2 peptide
modifications: Aib2, αMeF(2F)6, 4Pal10, αMeL13, Orn16, Aib20, D-Glu24, αMeY25, K17 and K40: K(AEEA2-(γ-Glu)-CO-(CH2)14-CH3), C-terminal NH2
B4: Example 20 (peptide)
peptide: YXEGTXTSDXSIXLDXIAQXEFIXXLIKGGKSSGAPPPS
modifications: Aib2, αMeF(2F)6, 4Pal10, αMeL13, Orn16, Aib20, D-Glu24, αMeY25, K28 and K31: K(AEEA2-(γ-Glu)-CO-(CH2)12-CO2H), C-terminal NH2
B5: Example 464 (peptide)
peptide: B4 peptide with S11X, I17Q, X24K, K31P
modifications: Y-Aib-EGT-αMeF(2F)-TSD-4Pal-Aib-I-αMeL-LD-Orn-QAQ-Aib-EFIK(2-[2-(2-Amino-ethoxy)-ethoxy]-acetyl)3-(γ-Glu)-(10-(4-carboxyphenoxy)decanoyl)-αMeY-LIK((2-[2-(2-Amino-ethoxy)-ethoxy]-acetyl)3-(γ-Glu)-(10-(4-carboxyphenoxy)decanoyl)GGPSSGAPPPS-NH2)
B6: Example 142 (peptide)
peptide: B4 peptide with I17K, K28E
modifications: Aib2, αMeF(2F)6, Bzt10, αMeL13, Orn16, Aib20, D-Glu24, αMeY25, K17 and K31: K(AEEA2-(γ-Glu)-CO-(CH2)12-CO2H), C-terminal NH2
B7: Example 403 (peptide)
peptide: B4 peptide with S11X, I17Q, X24K, K31P
modifications: Y-Aib-EGT-αMeF(2F)-TSD-4Pal-Aib-I-αMeL-LD-Orn-QAQ-Aib-EFIK((2-[2-(2-Amino-ethoxy)-ethoxy]-acetyl)2-(γ-Glu)-(10-(4-carboxyphenoxy)decanoyl))-αMeY-LIK((2-[2-(2-Amino-ethoxy)-ethoxy]-acetyl)2-(γ-Glu)-(10-(4-carboxyphenoxy)decanoyl))GGPSSGAPPPS-NH2
B8: Example 24 (peptide)
peptide: B4 peptide with I17K, K28E, G30K, K31P
modifications: Aib2, αMeF(2F)6, 4Pal10, αMeL13, Orn16, Aib20, D-Glu24, αMeY25, K17 and K30: K(AEEA2-(γ-Glu)-CO-(CH2)14-CH3), C-terminal NH2
B9: Example 26 (peptide)
peptide: B4 peptide
modifications: Aib2, αMeF(2F)6, 4Pal10, αMeL13, Orn16, Aib20, D-Glu24, αMeY25, K28 and K31: K(AEEA2-(γ-Glu)-CO-(CH2)14-CH3), C-terminal NH2
B10: Example 1 (peptide)
peptide: B4 peptide with I17K, K28E
modifications: Aib2, αMeF(2F)6, 4Pal10, αMeL13, Orn16, Aib20, D-Glu24, αMeY25, K17 and K31: K(AEEA2-(γ-Glu)-CO-(CH2)12-CO2H), C-terminal NH2
B11: Example 27 (peptide)
peptide: B4 peptide with X10K, I17K, K28E, K31P
modifications: Aib2, αMeF(2F)6, αMeL13, Orn16, Aib20, D-Glu24, αMeY25, K10 and K17: K(AEEA2-(γ-Glu)-CO-(CH2)12-CO2H), C-terminal NH2
B12: Example 21 (peptide)
peptide: B4 peptide with I17K, E21K, K28E, K31P
modifications: Aib2, αMeF(2F)6, 4Pal10, αMeL13, Orn16, Aib20, D-Glu24, αMeY25, K17 and K21: K(AEEA2-(γ-Glu)-CO-(CH2)14-CH3), C-terminal NH2
B13: Example 2 (peptide)
peptide: B4 peptide with I17K, K28E
modifications: Aib2, αMeF(2F)6, 4Pal10, αMeL13, Orn16, Aib20, D-Glu24, αMeY25, K17 and K31: K(AEEA2-(γ-Glu)-(10-(4-carboxyphenoxy)decanoyl)), C-terminal NH2

Legend:
Assay in all cases: cell-based or functional assay
human GIP receptor [1] = target: T1, human GIP receptor
human GLP-1 receptor [2] = target: human GLP-1 receptor (human, UniProt P43220 24-463)
human GIP receptor [3] = target: T2, human GIP receptor; remark: listed apart in the source
human GLP-1 receptor [4] = target: human GLP-1 receptor (human, UniProt P43220 24-463); remark: listed apart in the source
human glucagon receptor = human glucagon receptor (human, UniProt P47871 26-477)

Binder | cAMP EC50 (1.0% HSA) (human GIP receptor [1]) [nM] | cAMP EC50 (1.0% HSA) (human GLP-1 receptor [2]) [nM] | EC50, cAMP (human GIP receptor [3]) [nM] | Emax, cAMP (human GIP receptor [3]) [%] | EC50, cAMP (human GLP-1 receptor [4]) [nM] | EC50, cAMP (human glucagon receptor) [nM] | cAMP Emax (1.0% HSA) (human GIP receptor [1]) [%]
B1 | 16.7 | 107 |  |  |  |  | 
B2 |  |  | 0.0158 | 96.6 | 1.34 | > 9950 | 
B3 |  |  | 0.00243 |  | 0.00426 | > 9950 | 
B4 |  |  | 0.00985 | 98.8 | 0.552 | > 9950 | 
B5 | 0.316 | 4.48 |  |  |  |  | 95.5
B6 |  |  | 0.0317 |  |  | > 9950 | 
B7 | 0.711 | 7.31 |  |  |  |  | 91.7
B8 |  |  | 0.00266 |  | 0.0063 | > 9950 | 
B9 |  |  | 0.0218 |  | 0.0711 | > 9950 | 
B10 |  |  | 0.0145 | 90.2 | 0.925 | > 9950 | 
B11 |  |  | 0.116 | 88.8 | 2.77 | > 9950 | 
B12 |  |  | 0.00347 |  | 0.00655 | > 9950 | 
B13 |  |  | 0.0154 |  | 1.14 | > 9950 | 
